The target in one assay is LIGHT (UniProt O43557 74-240, limits assumed). The experiment in a line: BLI (Octet RH96, FIG. 22). In general terms: Biolayer interferometry detects binding as a change in optical thickness at a sensor tip.
The next assay concerns the target TRAIL (UniProt P50591 114-281). As to the kind of experiment: BLI (Octet RH96, FIG. 22).
For a further assay, the target named is T1, FasL (UniProt P48023 134-281, limits assumed).
T1 sequence (looked up): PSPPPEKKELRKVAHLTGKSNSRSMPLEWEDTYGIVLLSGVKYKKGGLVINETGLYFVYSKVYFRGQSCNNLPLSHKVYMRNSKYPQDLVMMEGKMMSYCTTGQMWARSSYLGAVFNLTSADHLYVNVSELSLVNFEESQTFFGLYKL
The experiment in a line: BLI (Octet RH96, FIG. 22).

The target of assay [1] is T2, membrane-bound TL1A transiently expressed on CHO cells (human, UniProt O95150 1-251).
T2 construct: whole, on cells
T2 sequence (looked up): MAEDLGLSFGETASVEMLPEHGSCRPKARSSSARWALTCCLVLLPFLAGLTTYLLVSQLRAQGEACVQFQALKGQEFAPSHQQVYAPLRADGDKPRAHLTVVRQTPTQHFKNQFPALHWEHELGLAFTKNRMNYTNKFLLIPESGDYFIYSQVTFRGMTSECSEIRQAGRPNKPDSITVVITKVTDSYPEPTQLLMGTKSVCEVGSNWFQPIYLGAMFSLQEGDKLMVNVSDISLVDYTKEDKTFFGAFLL
As to the kind of experiment: flow cytometry on CHO cells transiently transfected with TL1A, 1 hour at 4 C. Here is the method: Anti-TL1A mAbs were first screened for binding affinity to membrane-bound TL1A. CHO cells were transiently transfected to express TL1A, then were incubated with anti-TL1A mAbs for 1 hour at 4° C. and analyzed by flow cytometry. Hundreds of anti-TL1A mAbs were screened for binding, in order to determine which were the best binders to investigate further. […] The binding data is depicted in FIG. 16A.
On the technique in general: Flow cytometry measures light scatter and fluorescence of single cells or particles in a stream.

For assay [2], the target named is T3, soluble recombinant human TL1A trimer (human, UniProt O95150 72-251, limits assumed).
T3 construct: also called active TL1A trimer; trimeric TL1A
T3 sequence (looked up): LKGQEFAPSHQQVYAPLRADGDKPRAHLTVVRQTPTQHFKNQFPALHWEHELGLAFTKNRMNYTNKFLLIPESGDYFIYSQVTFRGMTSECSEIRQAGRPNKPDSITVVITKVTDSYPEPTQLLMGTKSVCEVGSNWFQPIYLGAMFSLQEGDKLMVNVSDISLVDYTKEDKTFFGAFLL
The experiment in a line: SPR at 37 C, soluble TL1A trimer up to 100 nM; apparent KD (KDapp). As for the experimental part:
In addition to measuring binding to scTL1A, binding to increasing concentrations of soluble recombinant human TL1A trimer (up to 100 nM) was measured at 37C via surface plasmon resonance.

Consider 1 molecule from patent publication US20250361311A1 (Xencor, published 2025).

What is called EC50 is the midpoint of the concentration-response curve. Low values mean greater potency, high ones weaker potency.

Chain of TRAIL (P50591 114-281 limits assumed): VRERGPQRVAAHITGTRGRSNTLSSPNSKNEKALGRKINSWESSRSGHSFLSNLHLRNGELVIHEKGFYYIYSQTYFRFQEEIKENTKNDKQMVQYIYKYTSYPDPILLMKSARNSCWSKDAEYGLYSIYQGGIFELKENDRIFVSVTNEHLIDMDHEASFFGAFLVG
Chain of LIGHT (O43557 74-240 limits assumed): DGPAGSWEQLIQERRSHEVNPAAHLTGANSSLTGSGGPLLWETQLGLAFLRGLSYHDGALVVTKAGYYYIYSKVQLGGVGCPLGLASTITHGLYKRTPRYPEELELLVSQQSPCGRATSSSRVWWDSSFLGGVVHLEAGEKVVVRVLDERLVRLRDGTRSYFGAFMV

B1: XENP47942 70416_041[TL1a]_H1L1_Fab IgG1_PVA_/S267K/M428L/N434S (antibody, V domains shown)
VH: QVQLVQSGAEVKKPGASVKVSCKVSGFSVTSYNVHWVRQAPGQGLEWMGVMWSGGNTDYNSKFQGRVTMTRDTSTNTVYMELSSLRSEDTAVYYCARAGRYYHDSNYYWDFPYWGQGTLVTVSS
VL: DIQMTQSPSSVSASVGDRVTITCRASEDIYSGLAWYQQKPGKSPKLLIYGASSLQDGVPSRFSGSGSGTDYTLTISSLQPEDFATYFCQEGLKSPYTFGAGTKLEIKR
notes: also called XmAb942; Xmab942
As to B1, the binding result with LIGHT, in the assay with TRAIL and with FasL was “no binding” each time. In assay [1], this molecule gave an EC50 of 1100 pM. For the same molecule, the Kd in assay [2] lay within 8 to 10 pM.
